Test results reported in paper PMC11068563, “The MCU and MCUb amino-terminal domains tightly interact: mechanisms for low conductance assembly of the mitochondrial calcium uniporter complex” (iScience, 2024).

B2: MCUb-NTD-fluorescein (MCUb residues 58-159 labelled with fluorescein at Cys82 and Cys147) (domain or fragment, human, UniProt Q9NWR8 58-159, looked up)
chain: DEITVIYRHGLPLVTLTLPSRKERCQFVVKPMLSTVGSFLQDLQNEDKGIKTAAIFTADGNMISASTLMDILLMNDFKLVINKIAYDVQCPKREKPSNEHTA
modifications: fluorescein (fluorescein-methane thiosulfonate) on Cys82 and Cys147
notes: MCU dominant negative beta subunit (MCUb), Homo sapiens, GenBank NP_060388.2, residues 58-159 (amino-terminal domain); Same chain as m1, with the label; also called fluorescein-MCUb-NTD; MCUb_(58-159) labeled; source: E. coli BL21(DE3) codon plus, purified (Ni-NTA, thrombin, SEC), then labelled with fluorescein-MTS
B3: Red-(NHS)-labeled MCUb-NTD (MCUb residues 58-159) (domain or fragment, human, UniProt Q9NWR8 58-159, looked up)
chain: DEITVIYRHGLPLVTLTLPSRKERCQFVVKPMLSTVGSFLQDLQNEDKGIKTAAIFTADGNMISASTLMDILLMNDFKLVINKIAYDVQCPKREKPSNEHTA
modifications: Red-NHS dye covalently linked to primary amines
notes: MCU dominant negative beta subunit (MCUb), Homo sapiens, GenBank NP_060388.2, residues 58-159 (amino-terminal domain); Same chain as m1, with the label; source: E. coli BL21(DE3) codon plus, purified (Ni-NTA, thrombin, SEC), then labelled with the RED-NHS labeling kit (NanoTemper)

Experiments:
[1] = biological target: MCU amino-terminal domain (MCU-NTD), MCU residues 72-189 (human) (UniProt Q8NE86); assay: cross-linking; 1 mM BS-3, 90 min, 20 mM HEPES (pH 8.4), 150 mM NaCl, 1 mM DTT, ambient temperature; proteins at 67.5 uM, mix with 67.5 uM or 33.8 uM of each; SDS-PAGE, Coomassie
[2] = biological target: MCU amino-terminal domain (MCU-NTD), MCU 72-189 (human) (UniProt Q8NE86); assay: SEC-MALS; 100 uL injected at 3.0 mg mL-1 (mixed sample: final 1.5 mg mL-1 of each component); Superdex 200 Increase 10/300 GL; 20 mM Tris (pH 8.5), 150 mM NaCl, 1 mM DTT, 10 C; with 5 mM CaCl2
[3] = biological target: MCU amino-terminal domain (MCU-NTD), MCU 72-189 (human) (UniProt Q8NE86); assay: SEC-MALS; 100 uL injected at 3.0 mg mL-1 (mixed sample: 3 mg mL-1 each mixed, final 1.5 mg mL-1 of each component); Superdex 200 Increase 10/300 GL; 20 mM Tris (pH 8.5), 150 mM NaCl, 1 mM DTT, 10 C; no divalent cations
[4] = biological target: MCU amino-terminal domain (MCU-NTD), MCU 72-189 (human) (UniProt Q8NE86); assay: SEC-MALS; 100 uL injected at 3.0 mg mL-1 (mixed sample: final 1.5 mg mL-1 of each component); Superdex 200 Increase 10/300 GL; 20 mM Tris (pH 8.5), 150 mM NaCl, 1 mM DTT, 10 C; with 5 mM MgCl2
[5] = biological target: B2; assay: other fluorescence titration; steady-state fluorescein fluorescence; 0.1 uM MCUb-NTD-fluorescein titrated with MCU-NTD or MCU-NTD-D147R; 20 mM Tris (pH 8.5), 150 mM NaCl, 1 mM DTT, 0.0001% (v/v) NP-40, 22.5°C; one-site model; details: both partners purified
[6] = biological target: B3; assay: MST; Red-NHS-labelled MCUb-NTD, increasing MCU-NTD or MCU-NTD-D147R; 20 mM Tris (pH 8.5), 150 mM NaCl, 1 mM DTT, 0.05% (v/v) NP-40, 22°C; one-site model; details: both partners purified
[7] = biological target: T1, MCU amino-terminal domain (MCU-NTD), MCU residues 72-189 (human, UniProt Q8NE86-1 72-189); assay: other fluorescence titration; steady-state fluorescein fluorescence; 0.1 uM MCUb-NTD-fluorescein titrated with MCU-NTD or MCU-NTD-D147R; 20 mM Tris (pH 8.5), 150 mM NaCl, 1 mM DTT, 0.0001% (v/v) NP-40, 22.5°C; one-site model; details: both partners purified
T1 construct: mitochondrial calcium uniporter (MCU), Homo sapiens, GenBank NP_612366.1, residues 72-189 (amino-terminal domain); theoretical monomer mass 13.8637 kDa is printed; also called MCU_(72-189); 15N-MCU-NTD; source: 15N-labelled in M9 minimal medium for NMR
T1 sequence (looked up): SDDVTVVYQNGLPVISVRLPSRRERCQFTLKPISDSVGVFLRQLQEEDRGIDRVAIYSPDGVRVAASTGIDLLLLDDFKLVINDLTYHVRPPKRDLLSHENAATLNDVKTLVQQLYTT

[8] = biological target: T1, MCU amino-terminal domain (MCU-NTD), …; assay: MST; Red-NHS-labelled MCUb-NTD, increasing MCU-NTD or MCU-NTD-D147R; 20 mM Tris (pH 8.5), 150 mM NaCl, 1 mM DTT, 0.05% (v/v) NP-40, 22°C; one-site model; details: both partners purified
[9] = biological target: T2, MCU amino-terminal domain (MCU-NTD), MCU 72-189 (human, UniProt Q8NE86-1 72-189); assay: SEC-MALS; 100 uL injected at 3.0 mg mL-1 (mixed sample: 3 mg mL-1 each mixed, final 1.5 mg mL-1 of each component); Superdex 200 Increase 10/300 GL; 20 mM Tris (pH 8.5), 150 mM NaCl, 1 mM DTT, 10 C; no divalent cations; details: both partners purified
T2 construct: mitochondrial calcium uniporter (MCU), Homo sapiens, GenBank NP_612366.1, N-terminal domain, residues 72-189; theoretical monomer mass printed as 13.8637 kDa
T2 sequence (looked up): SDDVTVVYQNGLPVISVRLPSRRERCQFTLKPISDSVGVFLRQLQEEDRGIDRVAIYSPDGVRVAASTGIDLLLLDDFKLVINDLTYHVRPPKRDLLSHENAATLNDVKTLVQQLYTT

[10] = biological target: MCUb amino-terminal domain (MCUb-NTD), MCUb 58-159 (human) (UniProt Q9NWR8); assay: SEC-MALS; 100 uL injected at 3.0 mg mL-1 (mixed sample: final 1.5 mg mL-1 of each component); Superdex 200 Increase 10/300 GL; 20 mM Tris (pH 8.5), 150 mM NaCl, 1 mM DTT, 10 C; with 5 mM CaCl2
[11] = biological target: T2, MCU amino-terminal domain (MCU-NTD), …; assay: as above; details: both partners purified
[12] = biological target: T3, Fluorescein-MCU-NTD (MCU 72-189 labelled with fluorescein-MTS at Cys97) (human, UniProt Q8NE86-1 72-189, fluorescein (fluorescein-methane thiosulfonate) on Cys97); assay: other fluorescence titration; steady-state fluorescein fluorescence; ~0.1 uM fluorescein-MCU-NTD titrated with MCUb-NTD; 20 mM Tris (pH 8.5), 150 mM NaCl, 1 mM DTT, 0.0001% (v/v) NP-40, 5 mM CaCl2; 22.5 C; one-site model; details: both partners purified
T3 construct: mitochondrial calcium uniporter (MCU), Homo sapiens, GenBank NP_612366.1, N-terminal domain, residues 72-189; also called MCU-NTD-fluorescein; source: labelled with fluorescein-MTS
T3 sequence (looked up): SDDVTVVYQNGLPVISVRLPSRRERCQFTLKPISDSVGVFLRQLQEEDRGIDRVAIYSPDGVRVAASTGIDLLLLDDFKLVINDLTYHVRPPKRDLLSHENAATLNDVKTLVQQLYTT

[13] = biological target: MCUb amino-terminal domain (MCUb-NTD), MCUb 58-159 (human) (UniProt Q9NWR8); assay: SEC-MALS; 100 uL injected at 4.0 mg mL-1; Superdex 200 Increase 10/300 GL; 20 mM Tris (pH 8.5), 150 mM NaCl, 1 mM DTT, 10 C; no divalent cations
[14] = biological target: MCUb amino-terminal domain (MCUb-NTD), MCUb 58-159 (human) (UniProt Q9NWR8); assay: SEC-MALS; 100 uL injected at 2.0 mg mL-1; Superdex 200 Increase 10/300 GL; 20 mM Tris (pH 8.5), 150 mM NaCl, 1 mM DTT, 10 C; no divalent cations
[15] = biological target: T3, Fluorescein-MCU-NTD (MCU 72-189 …); assay: other fluorescence titration; steady-state fluorescein fluorescence; ~0.1 uM fluorescein-MCU-NTD titrated with MCUb-NTD; 20 mM Tris (pH 8.5), 150 mM NaCl, 1 mM DTT, 0.0001% (v/v) NP-40, 5 mM MgCl2; 22.5 C; one-site model; details: both partners purified
[16] = biological target: MCUb amino-terminal domain (MCUb-NTD), MCUb 58-159 (human) (UniProt Q9NWR8); assay: SEC-MALS; 100 uL injected at 3.0 mg mL-1 (mixed sample: 3 mg mL-1 each mixed, final 1.5 mg mL-1 of each component); Superdex 200 Increase 10/300 GL; 20 mM Tris (pH 8.5), 150 mM NaCl, 1 mM DTT, 10 C; no divalent cations
[17] = biological target: T2, MCU amino-terminal domain (MCU-NTD), …; assay: SEC-MALS; 100 uL injected at 3.0 mg mL-1 (mixed sample: final 1.5 mg mL-1 of each component); Superdex 200 Increase 10/300 GL; 20 mM Tris (pH 8.5), 150 mM NaCl, 1 mM DTT, 10 C; with 5 mM MgCl2; details: both partners purified
[18] = biological target: MCUb amino-terminal domain (MCUb-NTD), MCUb 58-159 (human) (UniProt Q9NWR8); assay: as above
[19] = biological target: T4, MCU-NTD-D147R, MCU 72-189 D147R (human, UniProt Q8NE86-1 72-189, D147R); assay: MST; ~0.5 uM Red-(NHS)-MCUb-NTD titrated with unlabelled MCU-NTD variant; 20 mM Tris (pH 8.5), 150 mM NaCl, 1 mM DTT, 0.05% (v/v) NP-40; 22 C; one-site model; details: both partners purified
T4 construct: mitochondrial calcium uniporter (MCU), Homo sapiens, GenBank NP_612366.1, N-terminal domain, residues 72-189, with D147R
T4 sequence (looked up): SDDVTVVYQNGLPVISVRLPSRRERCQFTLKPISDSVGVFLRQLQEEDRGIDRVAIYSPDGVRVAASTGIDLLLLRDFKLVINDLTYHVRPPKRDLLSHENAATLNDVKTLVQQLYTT

[20] = biological target: T4, MCU-NTD-D147R, MCU 72-189 D147R; assay: other fluorescence titration; steady-state fluorescein fluorescence; ~0.1 uM fluorescein-MCUb-NTD titrated with unlabelled MCU-NTD variant; 20 mM Tris (pH 8.5), 150 mM NaCl, 1 mM DTT, 0.0001% (v/v) NP-40; 22.5 C; one-site model; details: both partners purified

Molecule: MCU amino-terminal domain (MCU-NTD), MCU residues 72-189 (from UniProt Q8NE86-1 72-189) (domain or fragment)
- stoichiometry N [1]: 2

Molecule: MCU amino-terminal domain (MCU-NTD), MCU 72-189 (from UniProt Q8NE86-1 72-189) (domain or fragment)
- stoichiometry N [2]: 0.96
- stoichiometry N [3]: 0.98
- stoichiometry N [4]: 1.05

B1: MCU-NTD-D147R (MCU residues 72-189 with D147R) (domain or fragment, human, UniProt Q8NE86-1 72-189, looked up)
chain: SDDVTVVYQNGLPVISVRLPSRRERCQFTLKPISDSVGVFLRQLQEEDRGIDRVAIYSPDGVRVAASTGIDLLLLRDFKLVINDLTYHVRPPKRDLLSHENAATLNDVKTLVQQLYTT
notes: mitochondrial calcium uniporter (MCU), Homo sapiens, GenBank NP_612366.1, residues 72-189 (amino-terminal domain) with D147R in the MCU regulating acidic patch; also called D147R MCU_(72-189)
- fold change of KD against MCU-NTD [5]: ~2 fold
- fold change of KD against MCU-NTD [6]: ~2 fold

Molecule: B2
- Kd [7]: 133 nM

Molecule: B3
- Kd [8]: 4650 nM

B4: MCUb amino-terminal domain (MCUb-NTD), MCUb 58-159 (domain or fragment, human, UniProt Q9NWR8 58-159, looked up)
chain: DEITVIYRHGLPLVTLTLPSRKERCQFVVKPMLSTVGSFLQDLQNEDKGIKTAAIFTADGNMISASTLMDILLMNDFKLVINKIAYDVQCPKREKPSNEHTA
notes: MCU dominant negative beta subunit (MCUb), Homo sapiens, GenBank NP_060388.2, N-terminal domain, residues 58-159; Theoretical monomer mass printed as 12.0098 kDa; a few vector residues probably remain after thrombin cleavage (pET-28a, NheI/XhoI); source: E. coli BL21(DE3) codon plus, purified (Ni-NTA, thrombin, SEC); not shown: 6xHis, N-terminal, cleaved
- stoichiometry N [9]: 1.68
- stoichiometry N [10]: 0.92
- stoichiometry N [11]: 1.72
- Kd [12]: 90 nM
- stoichiometry N [13]: 1.02
- stoichiometry N [14]: 0.95
- Kd [15]: 160 nM
- stoichiometry N [16]: 0.97
- stoichiometry N [17]: 1.61
- stoichiometry N [18]: 0.92

B5: Red-(NHS)-MCUb-NTD (MCUb 58-159 labelled with Red-NHS on primary amines) (domain or fragment, human, UniProt Q9NWR8 58-159, looked up)
chain: DEITVIYRHGLPLVTLTLPSRKERCQFVVKPMLSTVGSFLQDLQNEDKGIKTAAIFTADGNMISASTLMDILLMNDFKLVINKIAYDVQCPKREKPSNEHTA
modifications: Red-NHS dye covalently linked to primary amines
notes: MCU dominant negative beta subunit (MCUb), Homo sapiens, GenBank NP_060388.2, N-terminal domain, residues 58-159; also called Red-(NHS)-labeled MCUb-NTD; source: E. coli BL21(DE3) codon plus, purified (Ni-NTA, thrombin, SEC); labelled with the RED-NHS labeling kit (NanoTemper); not shown: 6xHis, N-terminal, cleaved
- Kd [19]: 11300 nM

B6: Fluorescein-MCUb-NTD (MCUb 58-159 labelled with fluorescein-MTS at Cys82 and Cys147) (domain or fragment, human, UniProt Q9NWR8 58-159, looked up)
chain: DEITVIYRHGLPLVTLTLPSRKERCQFVVKPMLSTVGSFLQDLQNEDKGIKTAAIFTADGNMISASTLMDILLMNDFKLVINKIAYDVQCPKREKPSNEHTA
modifications: fluorescein (fluorescein-methane thiosulfonate) on Cys82 and Cys147
notes: MCU dominant negative beta subunit (MCUb), Homo sapiens, GenBank NP_060388.2, N-terminal domain, residues 58-159; also called MCUb-NTD-fluorescein; source: E. coli BL21(DE3) codon plus, purified (Ni-NTA, thrombin, SEC); labelled with fluorescein-MTS; not shown: 6xHis, N-terminal, cleaved
- Kd [20]: 250 nM
